Laboratory results reported in publication PMC8715031, “Fusion of Chitin-Binding Domain From Chitinolyticbacter meiyuanensis SYBC-H1 to the Leaf-Branch Compost Cutinase for Enhanced PET Hydrolysis” (Frontiers in Bioengineering and Biotechnology, 2021).

B1: LCC^ICCG (unidentified prokaryotic organism; D238C/F243I/S283C/Y127G) (protein)
chain: QSNPYQRGPNPTRSALTADGPFSVATYTVSRLSVSGFGGGVIYYPTGTSLTFGGIAMSPGYTADASSLAWLGRRLASHGFVVLVINTNSRFDGPDSRASQLSAALNYLRTSSPSAVRARLDANRLAVAGHSMGGGGTLRIAEQNPSLKAAVPLTPWHTDKTFNTSVPVLIVGAEADTVAPVSQHAIPFYQNLPSTTPKVYVELCNASHIAPNSNNAAISVYTISWMKLWVDNDTRYRQFLCNVNDPALCDFRTNNRHCQ
notes: ICCG variant of LCC, synthetic gene in pET-29a, C-terminal His6-tag, E. coli BL21(DE3), Ni-NTA purified
B2: LCC^ICCG-ChBD (unidentified prokaryotic organism; D238C/F243I/S283C/Y127G) (protein)
chain: B1 chain
notes: C-terminal His6-tag; pET-29a, E. coli BL21(DE3), Ni-NTA purified; Chitinolyticbacter meiyuanensis SYBC-H1

Substrate: CCCC(=O)Oc1ccc([N+](=O)[O-])cc1
Assay: purified protein
Assay type: biochemical, unidentified prokaryotic organism
Settings: 50 mM phosphate buffer pH 8.0, isopropanol as substrate solvent, temperature not stated

Protein | Km [µM] | kcat [s⁻¹] | kcat/Km [M⁻¹ s⁻¹]
B1 | 126.3 | 67.5 | 534000
B2 | 141.8 | 68.4 | 404000
